Measured values published in the supplement of paper PMC9170038.

What was measured:
[1] = test system: MS2 coat protein; assay: apparent KD of MS2 coat protein, switch ON state; designed switch direction (-1 OFF switch, 1 ON switch): 1; higher = weaker reporter binding; settings: FMN input: 0 or 200 uM; Eterna round: R93 (includes R88 designs)
Summary of the method: (§1)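 Apparent KD per design is the median of normalised cluster binding-curve fits. Designed RNA switches transcribed on-chip from Illumina sequencing clusters were titrated with SNAP-549-labelled MS2 coat protein in twofold steps from 0.7 or 1.5 nM to 3 µM, with 0.8–1.5 h down to 10–20 min per step. Buffer: 100 mM Tris-HCl pH 7.5, 80 mM KCl, 4 mM MgCl2, without or with constant ligand.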

[2] = test system: MS2 coat protein; assay: apparent KD of MS2 coat protein, switch OFF state (with FMN for OFF switches, without FMN for ON switches); designed switch direction (-1 OFF switch, 1 ON switch): 1; higher = weaker reporter binding; settings: FMN input: 0 or 200 uM; Eterna round: R93 (includes R88 designs)
Summary of the method: as §1

Sequence	apparent KD of MS2 coat protein [1] [nM]	apparent KD of MS2 coat protein [2] [nM]
AAAAAUCCAGCGCAGGAUAUCGCAGGGUGCACAUGAGGAUCACCCAUGUGUACCCAAACACCCUGCGAGAAGGGCGUUGGAAAAAA [SameState-I]	9.65	11.1
GAAAAACAUGAGGAUCACCCAUGUAAGAUAAACACAGGAUAUGCGAAAAGAAACAAAGAAGCAGAAGGGUGAAGAA [Mat - Same State 1 - Tesla mod - 46]	18	30.2
UAUCAUUACACGAAGGAUAUCGAUAAUUGAACAUGAGGAUCACCCAUGUGCCAUCCCUUACAGUUCGAGAAGGUCGAGGGUGAAG [JR_SS002_Sub707]	142	299
AUAAAACAUGAGGAUCACCCAUGUAGAAAUAUGGGAGGAUAUACAAAGACGAAAGUCAAGGUAGAAGGCCUAAAAG [Mat - Same State 1 - Meechl mod - D118]	39.1	47.4
AAGAAACAUGAGGAUCACCCAUGUACCCAAAAGCGAGGAUAUGGGAAAGAAAGAAAGAAACCAGAAGGCGCAUGAA [Darius II]	20	35.5
AAAAAACAUGAGGAUCACCCAUGUAAAAAAAACACAGGAUAUCCCUUUUUUAAAUGGGAGGGAGAAGGGUGAAAAA [Nob's Hobby 12 - Jieux - Same State 1]	17.4	29.3
AACUACAUUAUGAAGGAUAUCCGCGUCUAGACAUGAGGAUCACCCAUGUAUACUUGGAUCAUGCAGGAGAAGGUCAAGGGUGAUU [JR_SS002_Sub1209]	178	122
AUGAGGAAGAGAGAGGAUAUCCAAAGGAAAACAUGAGGAUCACCCAUGUAAAAGGUAGGAAAUUGGGAGAAGGCUCAAGAGAGAG [salish99-ss2-065]	23.4	44.7
AGCUAACAUGAGGAUCACCCAUGUCCGCUAAACCAAGGAUAUGGGACGAAUAAAAUCGGACCAGAAGGUGGCCGAC [Qureaed]	218	222
GUCAGGAAGAGAGAGGAUAUCCAAAGGAAAACAUGAGGAUCACCCAUGUAAAAGGUAGGAAAUUGGGAGAAGGCUCAAGAGAGAG [salish99-ss2-095]	31.5	48.8
AAAAAACAUGAGGAUCACCCAUGUCCUCGGACAUGAGGAUAUGUACAGACUUCGGUCUGUACAGAAGGCAUGAAAA [SS1 - 1014]	713	756
AACAAUCUAUCUGAGGAUAUGUGUCGAAAGACAUGAGGAUCACCCAUGUCAAAACAUGGAAAGAUACAGAAGGCAGAUAGAUUGA [SS2: 1158]	8.33	11.9
AAGAAACAUGAGGAUCACCCAUGUAAACUCGAGAGAGGAUAUCGUACAUGGAAGAUUCAACGAGAAGGCUCUAGAG [Same State 1.1a (Pariah 3, G boost at 31, GC 76/28)]	23.8	41.5
AUAUGAGCUAUGGAGGAUAUCCAUAAUAAAACAUGAGGAUCACCCAUGUAAGAAAGAAAAGAAUGGGAGAAGGCCAUAGCUCAAU [SS 2 M44]	11.6	13.1
AAAAAACAUGAGGAUCACCCAUGUCCUCGGACAUGAGGAUAUGUACAGACUUCGGUCUGUACAGAAGGCAUGUAAA [SS1 - 1018]	901	684
GGAUAACAUGAGGAUCACCCAUGUACAUGGGUACAAGGAUAUGUAAAAUAAAACAAACAAACAGAAGGUGUAAAAA [I'm in a state]	228	163
ACCCGACAUGAGGAUCACCCAUGUAAACAAUCAUGAGGAUAUCCGGAGCAAAUGCUCAAGGGAGAAGGCAUAAAAG [Onrequus]	29.5	132
GAAAAACAUGAGGAUCACCCAUGUGAAAAUAUGGGAGGAUAUACGAAGUCGAAAGUCAGAGUAGAAGGCCUAAAAG [Garnet 33]	26.7	73.3
AUGGUGUAGGUACAGGAUAUGUUGCUCGUAACAUGAGGAUCACCCAUGUACCUAUGAGAUUAAAUGCAGAAGGGUGCACACCACG [Usbivece]	70.1	35.5
AGGAAGGAGAGAGAGGAUAUCCAAAGGAAAACAUGAGGAUCACCCAUGUAGAAGGUAGGAAAUUGGGAGAAGGCUCAAGAGACAG [salish99-ss2-126]	16.8	49.5
GGGAGACAUGAGGAUCACCCAUGUGAAAACGUGUGAGGAUAUCUAUGGAAACCAUACUGUAGAGAAGGCACUUGUC [Servius Sulpicius Similis]	45.4	125
AAUAUAUUAAGUGAGGAUAUCGAAGAAAAAACAUGAGGAUCACCCAUGUGGGAAACCUGGUCGGGUGAGAAGGCACUUAAUAUAU [Samwise Clockwise 27 - Jieux - Same State 2]	45.5	85.4
